We go through two substances from publication PMC12480940.

Holding throughout (test): SPR; Biacore T200, 25 °C, pH 5.5 (177 mM phosphate, 85 mM NaCl, 0.005% TWEEN-20); FIX-HSA variants amine-coupled (200 RU) on CM5; soluble His-tagged hFcRn (15.6-2000.0 nM for HSAWT, 1.95-62.5 nM for HSAQMP) or mFcRn (7.8-8000.0 nM for HSAWT, 3.9-500 nM for HSAQMP) injected; 1:1 Langmuir model
For assay [1], the target named is Padua-HSAQMP (human).
Assay [2] deals with PaduaKA-HSAQMP (human) (UniProt P02768).
The target in assay [3] is PaduaKR-HSAQMP (human) (UniProt P02768).
Assay [4] concerns the target FIXKA-HSAWT (human) (UniProt P02768).
In assay [5] the target is FIXKR-HSAWT (human) (UniProt P02768).

Turning to “soluble truncated His-tagged mouse neonatal Fc receptor (from UniProt Q61559 22-297; P01887 21-119)”, the dissociation constant Kd came to 44.6 nM in assay [1], 51.7 nM in assay [2] and 54.9 nM in assay [3]. Moreover, the figures for the koff in assay [1], in assay [2] and in assay [3] were 0.00512 s⁻¹, 0.0028 s⁻¹ and 0.00429 s⁻¹, respectively.

Take “soluble truncated His-tagged human neonatal Fc receptor (from UniProt P55899 24-297; P61769 21-119)”: the dissociation constant Kd turned out to be 177 nM in assay [4], 190 nM in assay [5], 0.2 nM in assay [2] and 0.3 nM in assay [3]. Further, the koff is 0.00769 s⁻¹ in assay [4], 0.00827 s⁻¹ in assay [5], 6e-05 s⁻¹ in assay [2] and 7e-05 s⁻¹ in assay [3].
